Experimental data from patent publication US20220204630A1 (SUNSHINE LAKE PHARMA, published 2022).

Key:
[1] = molecular target: T1, TrkA protein on HEK-293T-TrkA cells or NIH-3T3-TrkA cells (human, UniProt P04629 33-796); assay: flow cytometry competition: antibody titrated against biotinylated NGF binding to HEK-293T-TrkA cells, % parent
T1 construct: whole, on cells; Printed only as TrkA for these cells; also called TrkA protein on the membrane of NIH-3T3-TrkA cells

[2] = molecular target: T1, TrkA protein on HEK-293T-TrkA cells or …; assay: flow cytometry, antibody titrated on HEK-293T-TrKA cells, Parent %
From the text: (§1) In FIG. 7, the EC₅₀ (half-binding concentration) value reflects the affinity of the antibody. The smaller the EC₅₀ value, the higher the affinity of the antibody.

[3] = molecular target: T2, TrKA receptor protein coated in ELISA (Examples 11 and 16) (human, UniProt P04629 33-423, limits assumed); assay: ELISA plateau, antibody up to 20 µg/mL on TrKA
T2 construct: also called Human-TrKA
T2 sequence (P04629 33-423 limits assumed): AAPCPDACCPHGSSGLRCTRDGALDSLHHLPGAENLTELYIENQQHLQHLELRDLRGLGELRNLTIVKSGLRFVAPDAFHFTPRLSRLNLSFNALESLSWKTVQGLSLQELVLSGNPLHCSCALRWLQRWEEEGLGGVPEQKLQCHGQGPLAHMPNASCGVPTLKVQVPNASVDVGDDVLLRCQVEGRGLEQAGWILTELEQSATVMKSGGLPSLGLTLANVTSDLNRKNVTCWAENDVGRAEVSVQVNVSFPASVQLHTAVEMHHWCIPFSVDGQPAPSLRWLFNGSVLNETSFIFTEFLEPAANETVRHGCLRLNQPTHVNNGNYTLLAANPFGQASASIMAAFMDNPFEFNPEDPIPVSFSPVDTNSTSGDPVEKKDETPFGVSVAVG
Protocol: The TrkA receptor family belongs to receptor tyrosine kinases (RTKs), including TrkA, TrkB, and TrkC, which have high homology. TrkA is a receptor tyrosine kinase of nerve growth factor (NGF) that selectively binds to NGF and is a functional receptor for NGF. In addition to the high-affinity receptor TrkA, NGF can also bind to its low-affinity receptor p75. In the test, the binding of test antibodies at different concentrations (20 μg/mL, 10 μg/mL, 5 μg/mL, 2.5 μg/mL, 1.25 μg/mL, 0.625 μg/mL, 0.313 μg/mL, 0.156 μg/mL, 0.078 μg/mL, 0.039 μg/mL, 0.019 μg/mL) to TrKA, TrKB, TrKC, and P75 respectively was detected by the ELISA method, and the specificity of the test antibody binding to the target TrKA was evaluated. In the FIG. 8, at a certain antibody concentration, the OD₄₅₀ value reflects the binding strength of the antibody to the protein. The larger the reading, the stronger the binding of the antibody to the protein. […] It can be seen that the specificity of the binding of the test antibodies to the target TrKA is very good.

[4] = molecular target: T3, TRKA protein with a histidine tag (human, UniProt P04629 33-423, limits assumed); assay: BLI (Fortebio Octet RED96), His-tagged TRKA on Ni-NTA sensor, antibody 80-2.93 nM
T3 construct: it is put last here only for order; also called TRKA (50 µg/ml, 75 kDa, provided by HEC Labs); not shown: histidine tag
T3 sequence (P04629 33-423 limits assumed): as above
Protocol: They were added to each well of the sample plate. […] The KD value is the equilibrium dissociation constant between the antibody and its antigen, and the KD value is inversely proportional to the affinity. The KD value is related to the antibody concentration (the amount of antibody required for a particular experiment). The lower the KD value (the lower the concentration), the higher the affinity of the antibody. High-affinity antibodies are generally considered to be in the low nanomolar range (10⁻⁹).

[5] = molecular target: T2, TrKA receptor protein coated in ELISA …; assay: competition ELISA: antibody titrated against biotinylated NGF binding to TrkA, OD450
[6] = molecular target: T1, TrkA protein on HEK-293T-TrkA cells or …; assay: flow cytometry on HEK-293T-TrKA cells
From the text: as §1

[7] = molecular target: T1, TrkA protein on HEK-293T-TrkA cells or …; assay: cell-based or functional assay
[8] = molecular target: T4, Mouse-TrKA receptor on the surface of HEK293T-Mouse-TrKA cells (mouse, UniProt Q3UFB7 34-799); assay: flow cytometry competition on HEK293T-Mouse-TrkA cells; competitor biotinylated Mouse-NGF
T4 construct: whole, on cells; also called Mouse-TrkA protein on HEK293T-Mouse-TrkA cells
T4 sequence (Q3UFB7 34-799): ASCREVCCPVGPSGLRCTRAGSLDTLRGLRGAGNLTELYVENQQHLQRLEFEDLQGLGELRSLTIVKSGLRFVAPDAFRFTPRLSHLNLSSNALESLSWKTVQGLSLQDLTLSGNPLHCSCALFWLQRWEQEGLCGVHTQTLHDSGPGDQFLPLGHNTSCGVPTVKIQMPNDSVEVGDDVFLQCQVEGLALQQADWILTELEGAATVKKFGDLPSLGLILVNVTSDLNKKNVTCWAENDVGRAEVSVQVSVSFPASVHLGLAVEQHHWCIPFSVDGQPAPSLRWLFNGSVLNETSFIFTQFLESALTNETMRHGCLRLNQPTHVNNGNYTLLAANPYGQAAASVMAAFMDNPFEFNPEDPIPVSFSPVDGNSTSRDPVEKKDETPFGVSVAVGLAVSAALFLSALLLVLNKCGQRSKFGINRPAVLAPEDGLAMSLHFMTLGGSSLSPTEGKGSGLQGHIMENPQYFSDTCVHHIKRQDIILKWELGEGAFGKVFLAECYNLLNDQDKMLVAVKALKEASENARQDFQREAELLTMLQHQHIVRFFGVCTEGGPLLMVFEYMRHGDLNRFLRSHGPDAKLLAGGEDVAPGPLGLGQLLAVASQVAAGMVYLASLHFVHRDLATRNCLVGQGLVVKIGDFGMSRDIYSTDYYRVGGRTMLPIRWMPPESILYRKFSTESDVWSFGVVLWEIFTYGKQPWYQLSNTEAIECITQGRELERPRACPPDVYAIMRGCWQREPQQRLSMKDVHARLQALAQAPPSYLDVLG
Protocol: Mouse-NGF was biotinylated. Mouse-NGF could bind to the extracellular region of Mouse-TrkA protein on HEK293 T-Mouse-TrkA cells, and anti-Mouse-TrkA monoclonal antibody could also bind to the extracellular region of Mouse-TrkA protein on HEK293T-Mouse-TrkA cells. A competitive experiment was designed to detect the binding of Mouse-NGF to the extracellular region of Mouse-TrkA protein on HEK293T-Mouse-TrkA cells under different concentrations (20 μg/mL, 10 μg/mL, 5 μg/mL, 2.5 μg/mL, 1.25 μg/mL, 0.625 μg/mL, 0.313 μg/mL, 0.156 μg/mL, 0.078 μg/mL, 0.039 μg/mL, 0.019 μg/mL) of test antibodies by flow cytometry, thus the inhibition effect of test antibodies on the binding of Mouse-NGF and Mouse-TrKA was investigated. In FIG. 12, the parent % value reflects the Mouse-NGF signal that binds to the extracellular region of the Mouse-TrKA protein on the HEK293T-Mouse-TrkA cell.

[9] = molecular target: T5, Mouse-TrKA protein (mouse, UniProt Q3UFB7 34-420, limits assumed); assay: ELISA, antibody titrated on Mouse-TrKA protein, OD 450
T5 construct: also called Mouse-TrKA receptor
T5 sequence (Q3UFB7 34-420 limits assumed): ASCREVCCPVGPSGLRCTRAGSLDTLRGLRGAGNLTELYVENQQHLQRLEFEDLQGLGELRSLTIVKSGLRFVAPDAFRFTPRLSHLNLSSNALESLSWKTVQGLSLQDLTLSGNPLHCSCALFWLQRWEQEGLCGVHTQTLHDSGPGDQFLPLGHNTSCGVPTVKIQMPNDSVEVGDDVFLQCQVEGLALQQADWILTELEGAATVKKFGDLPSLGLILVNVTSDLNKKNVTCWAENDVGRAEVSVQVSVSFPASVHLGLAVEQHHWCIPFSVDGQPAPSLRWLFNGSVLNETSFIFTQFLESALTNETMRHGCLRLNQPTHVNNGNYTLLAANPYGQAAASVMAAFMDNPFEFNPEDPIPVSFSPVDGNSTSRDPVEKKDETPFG
Protocol: Test antibody (23E12, 21E5) samples were diluted with PBS buffer solution to 11 concentration gradients (20 μg/mL, 10 μg/mL, 5 μg/mL, 2.5 μg/mL, 1.25 μg/mL, […], 0.313 μg/mL, 0.156 μg/mL, 0.078 μg/mL, 0.039 μg/mL, 0.019 μg/mL). The binding of the test antibody to the Mouse-TrKA receptor at each concentration gradient was detected by the ELISA method, thus the binding ability of the test antibody to the Mouse-TrKA protein was detected. In FIG. 9, at a certain antibody concentration, the OD₄₅₀ value reflects the binding strength of the antibody to the protein. The larger the reading, the stronger the binding of the antibody to the protein. […] It can be seen that the test antibodies 23E12, 21E5, and Mouse-TrKA protein all have good binding ability.

[10] = molecular target: T4, Mouse-TrKA receptor on the surface of …; assay: flow cytometry on HEK293T-Mouse-TrKA cells
Protocol: The test antibody 23E12 samples were diluted with PBS buffer to 11 concentration gradients (20 μg/mL, 10 μg/mL, 5 μg/mL, 2.5 μg/mL, 1.25 μg/mL, 0.625 μg/mL, 0.313 μg/mL, 0.156 μg/mL, 0.078 μg/mL, 0.039 μg/mL, 0.019 μg/mL), and the binding of the test antibody to the Mouse-TrKA receptor on the surface of HEK293T-Mouse-TrKA cells at each concentration gradient was detected by flow cytometry. The binding ability of the antibody to Mouse-TrKA protein was tested. In FIG. 10, the EC₅₀ (half the binding concentration) value reflects the binding capacity of the antibody. The smaller the EC₅₀ value, the stronger the binding capacity of the antibody. […] It can be seen that the test antibody 23E12 has a good binding ability with the Mouse-TrKA receptor on the surface of HEK293T-Mouse-TrKA cells.

T1 sequence (P04629 33-796): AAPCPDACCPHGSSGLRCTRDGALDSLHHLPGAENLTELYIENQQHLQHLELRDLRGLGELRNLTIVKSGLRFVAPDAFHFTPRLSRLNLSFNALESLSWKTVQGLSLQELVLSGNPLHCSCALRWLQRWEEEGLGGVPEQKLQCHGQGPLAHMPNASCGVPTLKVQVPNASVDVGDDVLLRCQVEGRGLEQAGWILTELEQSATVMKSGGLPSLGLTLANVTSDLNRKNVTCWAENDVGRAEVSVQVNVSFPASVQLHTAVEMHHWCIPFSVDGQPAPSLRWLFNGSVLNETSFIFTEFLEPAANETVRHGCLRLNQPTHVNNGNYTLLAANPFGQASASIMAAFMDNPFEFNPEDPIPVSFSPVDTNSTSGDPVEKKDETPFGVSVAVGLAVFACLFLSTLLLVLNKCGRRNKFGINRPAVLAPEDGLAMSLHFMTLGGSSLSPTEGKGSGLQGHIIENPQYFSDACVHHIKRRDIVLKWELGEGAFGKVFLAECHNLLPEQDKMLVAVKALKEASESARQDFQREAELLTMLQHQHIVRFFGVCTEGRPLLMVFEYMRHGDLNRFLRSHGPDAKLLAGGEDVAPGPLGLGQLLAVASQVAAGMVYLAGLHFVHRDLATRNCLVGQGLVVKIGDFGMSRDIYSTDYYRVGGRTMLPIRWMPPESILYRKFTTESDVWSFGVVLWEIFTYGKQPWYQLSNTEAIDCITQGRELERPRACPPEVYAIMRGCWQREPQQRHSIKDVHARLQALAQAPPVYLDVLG

Binder | IC50 [1] | EC50 [2] | OD450 [3] | Kd [4] | koff [4] | kon [4] | IC50 [5] | EC50 [6] | IC50; p-TrkA level by AlphaLISA in NGF-stimulated NIH3T3-TrkA stable cell line [7] | IC50 [8] | EC50 [9] | EC50 [10]
2A5 chimeric antibody (antibody, human IgG4 S228P, kappa, F234A L235A, V domains shown, expressed in CHO cells) VH: EVQLQQSGPELVKPGASMKISCKASGYSFTGYTMNWVKQSHGKNLEWIGLINPYNGGTNYNQKFKGKATLTVDKSSSTAYMELLSLTSEDSAVYYCAFSYYGSRGFYFDYWGQGTTLTVSS VL: QIVLTQSPALMSASPGEKVTMTCSATSSVSYIYWYQQKPRSSPKPWIYLTSNLASGVPARFSGSGSGTSYSLTISSMEAEDAATYYCQQWSSNPPTFGGGTKLEIKR | 4.8 µg/mL | 0.312 µg/mL | ~3 OD450 | 0.0162 nM | 3.6e-06 s⁻¹ | 222000 M⁻¹ s⁻¹ | 1.06 µg/mL | < 1.5 µg/mL |  |  |  | 
1B9 chimeric antibody (antibody, human IgG4 S228P, kappa, F234A L235A, V domains shown, expressed in CHO cells) VH: QVHLQQSGAELMKPGASVKISCKATGYTFNIYWIDWVKQRPGHGLEWIGEILPGSGNTHYNENFKGKATMTADTSSNTAYMQLTSLTSEDSAVYYCARTDGRGYFDYWGQGTTLTVSS VL: DIVLTQSPASLVVSLGQRATISCRTSKSVSSSAYSYMHWYQQKPGQPPKVLIYLASNLESGVPARFSGSGSGTDFTLNIHPVEEEDAATYYCQHSRELPFTFGSGTKLEIKR | 0.334 µg/mL | 0.0372 µg/mL | ~3 OD450 | 0.899 nM | 0.000904 s⁻¹ | 1.01e+06 M⁻¹ s⁻¹ |  | < 1.5 µg/mL | 0.0473 µg/mL |  |  | 
27H3 chimeric antibody (antibody, human IgG4 S228P, kappa, F234A L235A, V domains shown, expressed in CHO cells) VH: QVQLQQSGAELMKPGASVKISCKTTGYRFSSYWIEWVKQRPGHGLEWLGEILPGRGIINYNENFRGKATFTADTSSNTAYVQLSSLTSEDSAVYFCARTDPPYFGVWGAGTTVTVSS VL: QAVVTQESALTTSPGETVTLTCRSSTGAVTISNYANWVQEKPDHLFTGLIGGTNNRPPGVPARFSGSLIGDKAALTITGAQTEDEAIYFCVLWYSNHWVFGGGTKLTVLR | 0.369 µg/mL | 0.0447 µg/mL | ~3 OD450 | 0.178 nM | 0.000279 s⁻¹ | 1.57e+06 M⁻¹ s⁻¹ | 0.11 µg/mL | < 1.5 µg/mL | 0.0437 µg/mL |  |  | 
23E12 chimeric antibody (antibody, human IgG4 S228P, kappa, F234A L235A, V domains shown, expressed in CHO cells) VH: QVQLQQSGAELVRPGTSVKISCKASGYAFTNYWLGWMKQRPGHGLEWIGDFYPRTGNTFYNENFKGKVTLTADKSSNTAYMQLSSLTSEDSAVYLCARAGTGFDYWGQGTTLTVSS VL: SIVMTQSPKSMSMSVGERVTLSCKASENVGGYVSWYQQKPDQSPKLLIYGASSRHTGVPDRFTGSGSETDFTLTISSVQAEDLAAYHCGQNYIYPFTFGGGTKLEIKR | 0.426 µg/mL | 0.0443 µg/mL | ~3 OD450 | 0.057 nM | 0.000109 s⁻¹ | 1.9e+06 M⁻¹ s⁻¹ | 0.213 µg/mL | < 1.5 µg/mL | 0.0537 µg/mL | 0.0515 µg/mL | 0.0208 µg/mL | 0.0801 µg/mL
21E5 chimeric antibody (antibody, human IgG4 S228P, kappa, F234A L235A, V domains shown, expressed in CHO cells) VH: QVQLQQSGAELMKPGASMKISCKATGYTFSTYWIEWVKQRPGHGLEWIGENLPGRHITNYNEKFKGKATFTADTSSNTAYMQLSSLTSEDSAVYYCARGRGTYYFDYWGQGTPLTVSS VL: DIVMTQAAFSTPVTLGTSASISCRSSQSLLHSNGITYLYWYLQKPGQSPQLLIYQMSNLASGVPDRFSSSGSGTDFTLRISRVEAEDVGVYYCAQNLEFPFTFGSGTKLEIKR | 0.547 µg/mL | 0.0575 µg/mL | ~3 OD450 | 0.173 nM | 0.000175 s⁻¹ | 1.01e+06 M⁻¹ s⁻¹ | 0.294 µg/mL | < 1.5 µg/mL | 0.0856 µg/mL |  | 0.0954 µg/mL | 
2008 chimeric antibody (antibody, human IgG4 S228P, kappa, F234A L235A, V domains shown, also called 20C8) VH: EVLLQQSGPELVKPGASMKISCKASVYSFTAYTMNWVKQSHGKNLEWIGLINPHNGGTRYNQKFKGKATLTLDKSSSTAYMDLLSLTSEDSAVYYCAISRYGSSSFYFDVWGAGTTVAVSS VL: QIVLSQSPAILSASPGEKVTMTCRASSSISYMHWYQQKPGSSPKPWISATSNLASGVPARFSGSGSGTSYSLTISGVEAEDAATYYCQQWSSNPPTFGGGTNLEIKR | 0.822 µg/mL | 0.136 µg/mL | ~3 OD450 | 0.115 nM | 6.33e-05 s⁻¹ | 551000 M⁻¹ s⁻¹ | 0.31 µg/mL | < 1.5 µg/mL | 0.11 µg/mL |  |  | 
4H4 chimeric antibody (antibody, human IgG4 S228P, kappa, F234A L235A, V domains shown, expressed in CHO cells) VH: EVQLQQSGPELVKPGASMKISCKASGYSFTGYTMNWVKQSHGKNLEWIGLINPYNGGTRYNQKFKGKATLTVDKSSSTAYMELLSLTSEDSAVYYCASSSYRNDGNWYFDVWGAGTTVTVSS VL: DIVMTQSPAIMSASPGEKVTMTCSASSSVSYMHWYQQKSGTSPKRWIYDTSKLASGVPARFSGSGSGTSYSLTISSMETEDAATYYCQQWSSNPPTFGGGTKLELKR | 2.04 µg/mL | 0.211 µg/mL | ~3 OD450 | 1.68 nM | 0.000234 s⁻¹ | 139000 M⁻¹ s⁻¹ | 0.551 µg/mL | < 1.5 µg/mL | 0.129 µg/mL |  |  | 
